Target: T1, programmed death ligand 1 (PD-L1) (Homo sapiens, UniProt Q9NZQ7)
T1 construct: human programmed death ligand 1; HEK293 transient, Ni Sepharose and SEC; also called hPD-L1
Assay: ELISA; indirect ELISA; MaxiSorp plates coated with protein overnight at 4 °C, blocked with 1% BSA in PBS, ligands diluted in PBS 1 h at RT, detection with anti-IgG Fc or anti-His-Tag antibody and HRP-streptavidin, TMB; the paper does not say for each pair which partner was coated
Conditions: both partners purified

T1 sequence (Q9NZQ7 19-290): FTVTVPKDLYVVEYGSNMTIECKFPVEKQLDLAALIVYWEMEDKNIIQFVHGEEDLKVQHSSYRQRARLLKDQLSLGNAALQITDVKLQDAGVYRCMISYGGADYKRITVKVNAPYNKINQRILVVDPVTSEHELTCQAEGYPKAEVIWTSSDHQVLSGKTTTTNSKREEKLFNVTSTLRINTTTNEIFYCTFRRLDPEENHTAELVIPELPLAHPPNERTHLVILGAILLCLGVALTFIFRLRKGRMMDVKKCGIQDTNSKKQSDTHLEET

B1: durvalumab-based anti-hPD-L1 IgG4 antibody C5 (antibody, V domains shown)
VH: EVQLVESGGGLVQPGGSLRLSCAASGFTFSRYWMSWVRQAPGKGLEWVALISRDGSETYYVDSVKGRFTISRDNAKNSLYLQMNSLRAEDTAVYYCAREGGWFGELAFDYWGQGTLVTVSS
VL: IVLTQSPGTLSLSPGERATLSCKASEDIGTWLAWYQQKPGQAPRLLIYDASSRATGIPDRFSGSGSGTDFTLTISRLEPEDFAVYYCQQYGSLPWTFGQGTKVEIK
notes: IgG4 heavy chain; IgG4; recombinant human anti-PD-L1 antibody, previously modeled, durvalumab-based; also called C5 antibody; full C5 antibody; source: produced by Recepton, purified (MabSelect Sure, SEC); copies: 2 + 2
B1: binds.

B2: C5M1A, asymmetric knob-into-hole C5 IgG4 with one of the Fabs replaced by M1 (bispecific antibody, V domains shown)
VH: EVQLVESGGGLVQPGGSLRLSCAASGFTFSRYWMSWVRQAPGKGLEWVALISRDGSETYYVDSVKGRFTISRDNAKNSLYLQMNSLRAEDTAVYYCAREGGWFGELAFDYWGQGTLVTVSS
VL: IVLTQSPGTLSLSPGERATLSCKASEDIGTWLAWYQQKPGQAPRLLIYDASSRATGIPDRFSGSGSGTDFTLTISRLEPEDFAVYYCQQYGSLPWTFGQGTKVEIK
notes: it replaces one Fab; human IgG4 constant region, hinge and Fc as in the heavy chain of m7, with knob-into-hole mutations; copies: 1 + 1 + 1
B2: binds.

B3: C5M1B, C5 scFv with M1 attached to its C-terminus by a (GGGGS)4 linker (bispecific antibody, V domains shown)
VH: EVQLVESGGGLVQPGGSLRLSCAASGFTFSRYWMSWVRQAPGKGLEWVALISRDGSETYYVDSVKGRFTISRDNAKNSLYLQMNSLRAEDTAVYYCAREGGWFGELAFDYWGQGTLVTVSS
VL: IVLTQSPGTLSLSPGERATLSCKASEDIGTWLAWYQQKPGQAPRLLIYDASSRATGIPDRFSGSGSGTDFTLTISRLEPEDFAVYYCQQYGSLPWTFGQGTKVEIK
notes: linker printed as (GGGGS)4
B3: binds.

Reference: article PMC10673611 (Molecules, 2023)
